{"source": "paper PMC5874046", "about": "“Interaction of HuDA and PABP at 5'UTR of mouse insulin2 regulates insulin biosynthesis”", "key": {"His-HuD D [1]": {"biological_target": "T1, His-HuD D (mouse, UniProt Q61701-10 1-371)", "T1 sequence (Q61701 other isoform, or with tags, fused parts or gaps)": "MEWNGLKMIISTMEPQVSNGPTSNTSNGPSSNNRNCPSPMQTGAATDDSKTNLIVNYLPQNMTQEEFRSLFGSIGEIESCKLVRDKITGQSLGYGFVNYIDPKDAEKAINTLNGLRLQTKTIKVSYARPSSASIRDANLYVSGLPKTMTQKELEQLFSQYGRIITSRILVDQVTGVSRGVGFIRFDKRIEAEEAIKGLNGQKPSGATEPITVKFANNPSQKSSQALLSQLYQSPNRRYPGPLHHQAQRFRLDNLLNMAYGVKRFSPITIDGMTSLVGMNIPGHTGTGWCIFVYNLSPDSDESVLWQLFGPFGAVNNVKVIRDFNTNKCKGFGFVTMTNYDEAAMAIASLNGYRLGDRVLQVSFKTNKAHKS", "assay": "competition; competitor; EMSA: 6% native PAGE, 0.5x TBE, 4°C (binding buffer as in cited work); biotin pull-down: 5 mM Tris pH 7.5, 15 mM KCl, 5 mM MgCl2, 0.25 mM DTT, 10% glycerol, 20", "settings": "protein: recombinant, tags: His"}, "His-HuD A [2]": {"biological_target": "T2, His-HuD A (mouse, UniProt Q61701 1-385)", "T2 sequence (Q61701 whole entry)": "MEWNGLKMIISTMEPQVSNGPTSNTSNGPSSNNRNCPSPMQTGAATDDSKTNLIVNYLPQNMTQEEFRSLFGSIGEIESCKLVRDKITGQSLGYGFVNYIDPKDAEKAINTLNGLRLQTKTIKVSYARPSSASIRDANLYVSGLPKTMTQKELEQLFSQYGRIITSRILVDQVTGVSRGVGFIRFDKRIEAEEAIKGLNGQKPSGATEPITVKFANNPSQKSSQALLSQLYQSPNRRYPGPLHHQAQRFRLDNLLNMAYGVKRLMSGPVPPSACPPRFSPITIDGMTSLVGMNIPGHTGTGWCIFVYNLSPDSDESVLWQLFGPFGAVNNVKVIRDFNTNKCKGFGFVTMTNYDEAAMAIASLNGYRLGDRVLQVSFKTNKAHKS", "assay": "competition; competitor against labeled Ins2L; EMSA: 6% native PAGE, 0.5x TBE, 4°C (binding buffer as in cited work); biotin pull-down: 5 mM Tris pH 7.5, 15 mM KCl, 5 mM MgCl2, 0.25 mM DTT, 10% glycerol, 20", "settings": "protein: recombinant, tags: His"}, "His-HuD D [3]": {"biological_target": "T1, His-HuD D", "assay": "EMSA; EMSA: 6% native PAGE, 0.5x TBE, 4°C (binding buffer as in cited work); biotin pull-down: 5 mM Tris pH 7.5, 15 mM KCl, 5 mM MgCl2, 0.25 mM DTT, 10% glycerol, 20", "settings": "protein: recombinant; tags: His; label: radiolabel (probe); m-fold predicted structure"}, "GST-HuD B": {"biological_target": "GST-HuD B (mouse, UniProt Q61701-4 1-380)", "sequence (Q61701 other isoform, or with tags, fused parts or gaps)": "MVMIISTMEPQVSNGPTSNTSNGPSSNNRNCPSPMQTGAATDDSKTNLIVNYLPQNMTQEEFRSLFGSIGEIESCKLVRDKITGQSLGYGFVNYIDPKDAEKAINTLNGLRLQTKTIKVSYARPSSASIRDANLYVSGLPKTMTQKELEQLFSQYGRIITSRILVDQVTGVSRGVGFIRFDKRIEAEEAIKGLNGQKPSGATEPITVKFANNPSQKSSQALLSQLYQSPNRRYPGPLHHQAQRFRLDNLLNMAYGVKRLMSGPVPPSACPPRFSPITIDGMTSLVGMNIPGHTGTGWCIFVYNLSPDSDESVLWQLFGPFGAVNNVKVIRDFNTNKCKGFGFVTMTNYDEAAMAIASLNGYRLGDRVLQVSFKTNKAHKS", "assay": "EMSA; EMSA: 6% native PAGE, 0.5x TBE, 4°C (binding buffer as in cited work); biotin pull-down: 5 mM Tris pH 7.5, 15 mM KCl, 5 mM MgCl2, 0.25 mM DTT, 10% glycerol, 20", "settings": "protein: recombinant; tags: GST; label: radiolabel (probe); m-fold predicted structure"}, "His-HuD A [4]": {"biological_target": "T2, His-HuD A", "assay": "EMSA; EMSA: 6% native PAGE, 0.5x TBE, 4°C (binding buffer as in cited work); biotin pull-down: 5 mM Tris pH 7.5, 15 mM KCl, 5 mM MgCl2, 0.25 mM DTT, 10% glycerol, 20", "settings": "protein: recombinant; tags: His; label: radiolabel (probe); m-fold predicted structure"}, "His-HuD B": {"biological_target": "His-HuD B (mouse, UniProt Q61701-4 1-380)", "assay": "EMSA; EMSA: 6% native PAGE, 0.5x TBE, 4°C (binding buffer as in cited work); biotin pull-down: 5 mM Tris pH 7.5, 15 mM KCl, 5 mM MgCl2, 0.25 mM DTT, 10% glycerol, 20", "settings": "protein: recombinant; tags: His; label: radiolabel (probe); m-fold predicted structure"}, "His-HuD D [5]": {"biological_target": "T1, His-HuD D", "assay": "competition; competitor; similar to L at low excess, differential at high excess; EMSA: 6% native PAGE, 0.5x TBE, 4°C (binding buffer as in cited work); biotin pull-down: 5 mM Tris pH 7.5, 15 mM KCl, 5 mM MgCl2, 0.25 mM DTT, 10% glycerol, 20", "settings": "protein: recombinant; tags: His; m-fold predicted structure"}, "His-HuD A [6]": {"biological_target": "T2, His-HuD A", "assay": "competition; competitor against labeled Ins2L; similar to L at low excess, differential at high excess; EMSA: 6% native PAGE, 0.5x TBE, 4°C (binding buffer as in cited work); biotin pull-down: 5 mM Tris pH 7.5, 15 mM KCl, 5 mM MgCl2, 0.25 mM DTT, 10% glycerol, 20", "settings": "protein: recombinant; tags: His; m-fold predicted structure"}}, "data": [{"binder": "GGGUCUUCCAGGUUAUUGUUUCAAC (ssRNA)", "note": "[L4]", "values": [{"measurement": "binding result", "setting": "His-HuD D [1]", "value": "binds"}, {"measurement": "binding result", "setting": "His-HuD A [2]", "value": "binds"}]}, {"binder": "Ins2L 5'UTR (L) (structured_RNA) RNA: GGGAGCCCUAAGUGAUCCGCUACAAUCAAAAACCAUCAGCAAGCAGGAAGCCUAUCUUCCAGGUUAUUGUUUCAAC", "values": [{"measurement": "binding result", "setting": "His-HuD D [3]", "value": "binds"}, {"measurement": "binding result", "setting": "GST-HuD B", "value": "no binding"}, {"measurement": "binding result", "setting": "His-HuD A [4]", "value": "binds"}, {"measurement": "binding result", "setting": "His-HuD B", "value": "no binding"}]}, {"binder": "GGGUACAAUCAAAAACCAUCAGCAA (ssRNA)", "note": "[L2]", "values": [{"measurement": "binding result", "setting": "His-HuD D [1]; label: radiolabel (probe)", "value": "binds"}, {"measurement": "binding result", "setting": "His-HuD A [2]; label: radiolabel (probe)", "value": "binds"}]}, {"binder": "Ins2S 5'UTR (S) (structured_RNA) RNA: GGGAGCCCUAAGUGAUCCGCUACAAUCAAAAACCAUCAGCAAGCAGGAAGGUUAUUGUUUCAAC", "values": [{"measurement": "binding result", "setting": "His-HuD D [5]", "value": "binds"}, {"measurement": "binding result", "setting": "His-HuD A [6]", "value": "binds"}]}]}
